This note sets out measurements from paper PMC5216914.

Read-outs that look alike come from different tables or passages of the source.

With cSrc: Y416F, the enzymatic_activity entry (phosphorylation at Y416) was “abolishes”.
Take cSrc: Y527F: the enzymatic_activity entry (phosphorylation at Y527) is reported as “increases”.
